{
  "source": "paper PMC11970506",
  "target": "POTRA1, 2 construct of BamA (E. coli)",
  "assay": "SPR; Biacore T100; POTRA1, 2 immobilised by amine coupling to a CM5 chip; SurA flowed at 0 to 10 mg/ml; 25 mM MES, 150 mM NaCl, pH 6.5, 25°C",
  "note": "pKd: −log10 of the molar value.",
  "data": [
    {"substance": "survival protein A (SurA), without the signal sequence (amino acids 21 to 428) (from UniProt P0ABZ6 21-428) (natural protein)", "values": [
      {"measurement": "pKd", "result": 4.80}
    ]}
  ]
}
